The text below walks through data of US20080300385A1.

For test [1], the target named is Tat protein from HIV-1 strain BH10 (HIV-1 strain BH10) (UniProt P69697). Briefly: SPR, kinetic experiment (FIG. 5B).
For test [2] the target is unchanged. The experiment in a line: ITC in free solution (FIG. 7).

In the case of “gp140 Env protein from HIV-1 strain SF162 (o-gp140SF162), trimer (from UniProt P19550 32-675)”, the Kd (usually the equilibrium constant for the complex coming apart) in test [1] came to 37 nM. In addition, the stoichiometry (Tat molecules per Env trimer) (Tat molecules per Env trimer) in test [2] came out at 3.
